B1: BxlB (GH3 β-xylosidase): BxlBN7 (protein)
parent chain: MAVFKSWNLALLSSLFIPALCQSNYPDCTTGPLSELPICDTSLSPLERAKSLVSALTLEEKINNTGHEAAGSSRLGLPAYNWWNEALHGVAEKHGVSFEESGDFSYATSFPAPIVLGAAFNDALIRRVAEIISTEARAFSNSDHAGIDYWTPNVNPFKDPRWGRGQETPGEDPLHCSRYVKEFVGGLQGDDPEKPKVVATCKHLAAYDLEEWGGVSRFEFDAKVSAVDLLEYYLPPFKTCAVDASVGAFMCSYNALNGVPACADRYLLQTVLREHWGWEGPGHWVTGDCGAVERIQTYHHYVESGPEAAAAALNAGVDLDCGTWLPSYLGEAERQGLISNETLDAALTRLYTSLVQLGYFDPAEGQPLRSLGWDDVATSEAEELAKTVAIQGTVLLKNIDWTLPLKANGTLALIGPFINFTTELQSNYAGPAKHIPTMIEAAERLGYNVLTAPGTEVNSTSTDGFDDALAIAAEADALIFFGGIDNTVEEESLDRTRIDWPGNQEELILELAELGRPLTVVQFGGGQVDDSALLASAGVGAIVWAGYPSQAGGAGVFDVLTGKAAPAGRLPITQYPKSYVDEVPMTDMNLQPGTDNPGRTYRWYEDAVLPFGFGLHYTTFNVSWAKKAFGPYDAATLARGKNPSSNIVDTFSLAVTNTGDVASDYVALVFASAPELGAQPAPIKTLVGYSRASLIKPGETRKVDVEVTVAPLTRATEDGRVVLYPGEYTLLVDVNDEYPTAKFEIKGDVQVLEKFPLSGNDSD
B2: BxlB (GH3 β-xylosidase): BxlBN5 (protein)
parent chain: B1 parent chain
B3: BxlB (GH3 β-xylosidase): BxlBN1 (protein)
parent chain: B1 parent chain
B4: BxlB (GH3 β-xylosidase): BxlBN1;5;7 (protein)
parent chain: B1 parent chain
B5: BxlB (GH3 β-xylosidase): BxlBN1;5 (protein)
parent chain: B1 parent chain
B6: BxlB (GH3 β-xylosidase): BxlBN5;7 (protein)
parent chain: B1 parent chain
B7: BxlB (GH3 β-xylosidase): BxlBN1;7 (protein)
parent chain: B1 parent chain
B8: BxlB (GH3 β-xylosidase): BxlBnon-glyc (protein)
parent chain: B1 parent chain
B9: BxlB^wt (GH3 β-xylosidase BxlB) (Aspergillus nidulans FGSC A4) (protein)
chain: NYPDCTTGPLSELPICDTSLSPLERAKSLVSALTLEEKINNTGHEAAGSSRLGLPAYNWWNEALHGVAEKHGVSFEESGDFSYATSFPAPIVLGAAFNDALIRRVAEIISTEARAFSNSDHAGIDYWTPNVNPFKDPRWGRGQETPGEDPLHCSRYVKEFVGGLQGDDPEKPKVVATCKHLAAYDLEEWGGVSRFEFDAKVSAVDLLEYYLPPFKTCAVDASVGAFMCSYNALNGVPACADRYLLQTVLREHWGWEGPGHWVTGDCGAVERIQTYHHYVESGPEAAAAALNAGVDLDCGTWLPSYLGEAERQGLISNETLDAALTRLYTSLVQLGYFDPAEGQPLRSLGWDDVATSEAEELAKTVAIQGTVLLKNIDWTLPLKANGTLALIGPFINFTTELQSNYAGPAKHIPTMIEAAERLGYNVLTAPGTEVNSTSTDGFDDALAIAAEADALIFFGGIDNTVEEESLDRTRIDWPGNQEELILELAELGRPLTVVQFGGGQVDDSALLASAGVGAIVWAGYPSQAGGAGVFDVLTGKAAPAGRLPITQYPKSYVDEVPMTDMNLQPGTDNPGRTYRWYEDAVLPFGFGLHYTTFNVSWAKKAFGPYDAATLARGKNPSSNIVDTFSLAVTNTGDVASDYVALVFASAPELGAQPAPIKTLVGYSRASLIKPGETRKVDVEVTVAPLTRATEDGRVVLYPGEYTLLVDVNDEYPTAKFEIKGDVQVLEKFPLSGNDSD
notes: homologous secreted expression in A. nidulans A773 (pEXPYR, glaA promoter, A. niger glucoamylase signal peptide); purified by DEAE and Superdex 200; N-glycosylated at N63, N340, N408, N419, N458, N621, N760

Biological target: not listed separately
Experiment: far-UV CD secondary structure
Conditions: glycan lost; control: BxlBwt

| Molecule | structure_or_conformation |
| --- | --- |
| B1 | no change |
| B2 | no change |
| B3 | no change |
| B4 | no change |
| B5 | no change |
| B6 | no change |
| B7 | no change |
| B8 | no change |

Biological target: not listed separately
Experiment: ρNP-X activity of intracellular extract
Conditions: glycan lost; control: BxlBwt

| Molecule | enzymatic_activity, fold_change |
| --- | --- |
| B4 | increases |

Biological target: not listed separately
Experiment: Michaelis-Menten kinetics, purified enzyme, pH 5.0, 60 °C
Conditions: glycan lost; control: BxlBwt

| Molecule | enzymatic_activity, kcat_Km |
| --- | --- |
| B1 | decreases, 1.27 vs 6.34 |
| B2 | decreases, 0.61 vs 6.34 |
| B3 | decreases, 5.13 vs 6.34 |
| B4 | increases, 9.51 vs 6.34, 50% higher catalytic efficiency as compared to the wild type |
| B5 | increases, 10.33 vs 6.34 |
| B6 | increases, 9.94 vs 6.34 |
| B7 | decreases, 0.57 vs 6.34 |
| B8 | decreases, 5.87 vs 6.34, BxlBnon-glyc catalytic efficiency was reduced by 7% |

System: O=[N+]([O-])c1ccc(O[C@@H]2OC[C@@H](O)[C@H](O)[C@H]2O)cc1
Experiment: purified protein
Assay type: biochemical, Aspergillus nidulans
Conditions: 0.05 M ammonium acetate pH 5.0, 60 °C, 1–20 mM substrate

| Molecule | Km [µM] | Vmax [µmol/min/mg] | kcat [s⁻¹] | kcat/Km [M⁻¹ s⁻¹] |
| --- | --- | --- | --- | --- |
| BxlB^wt (GH3 β-xylosidase BxlB) (Aspergillus nidulans FGSC A4; N340Q/N408Q/N419Q/N458Q/N621Q/N760Q) | 2530 ± 230 | 9.49 | 13 | 5130 |

System: T1, O=[N+]([O-])c1ccc(O[C@@H]2OC[C@@H](O)[C@H](O)[C@H]2O)cc1
T1 construct: homologous secreted expression in A. nidulans A773 (pEXPYR, glaA promoter, A. niger glucoamylase signal peptide); purified by DEAE and Superdex 200; N-glycosylated at N63, N340, N408, N419, N458, N621, N760
Experiment: purified protein
Assay type: biochemical, Aspergillus nidulans
Conditions: 0.05 M ammonium acetate pH 5.0, 60 °C, 1–20 mM substrate

| Molecule | Km [µM] | Vmax [µmol/min/mg] | kcat [s⁻¹] | kcat/Km [M⁻¹ s⁻¹] |
| --- | --- | --- | --- | --- |
| BxlB^wt (GH3 β-xylosidase BxlB) (Aspergillus nidulans FGSC A4; N340Q/N408Q/N419Q/N621Q) | 2490 ± 430 | 17.3 | 23.7 | 9510 |
| BxlB^wt (GH3 β-xylosidase BxlB) (Aspergillus nidulans FGSC A4; N340Q/N408Q/N419Q/N621Q/N760Q) | 2910 ± 180 | 21.9 | 30.1 | 10300 |
| BxlB^wt (GH3 β-xylosidase BxlB) (Aspergillus nidulans FGSC A4; N340Q/N408Q/N419Q/N621Q/N63Q/N760Q) | 2710 ± 210 | 6.08 | 3.71 |  |
| BxlB^wt (GH3 β-xylosidase BxlB) (Aspergillus nidulans FGSC A4; N340Q/N408Q/N419Q/N458Q/N621Q) | 9920 ± 1050 | 4.12 | 5.64 | 570 |
| BxlB^wt (GH3 β-xylosidase BxlB) (Aspergillus nidulans FGSC A4; N340Q/N408Q/N419Q/N458Q/N621Q/N63Q/N760Q) | 2360 ± 110 | 10.1 | 13.9 | 5870 |
| BxlB^wt (GH3 β-xylosidase BxlB) (Aspergillus nidulans FGSC A4; N340Q/N408Q/N419Q/N621Q/N63Q) | 2810 ± 110 | 20.5 | 28 | 9940 |
| BxlB^wt (GH3 β-xylosidase BxlB) (Aspergillus nidulans FGSC A4; N340Q/N408Q/N419Q/N458Q/N621Q/N63Q) | 3190 ± 220 | 3.42 | 4.37 | 1270 |

Biological target: not listed separately
Experiment: western blot of crude extracellular extract, polyclonal anti-BxlB
Conditions: glycan lost; control: BxlBwt

| Molecule | expression_or_secretion |
| --- | --- |
| B1 | decreases |
| B2 | decreases |
| B3 | decreases |
| B4 | decreases |
| B5 | decreases |
| B6 | decreases |
| B7 | decreases |
| B8 | decreases |

Biological target: not listed separately
Experiment: CD thermal melt, 20-100 °C
Conditions: glycan lost; control: BxlBwt

| Molecule | stability_or_folding, Tm |
| --- | --- |
| B1 | decreases |
| B2 | decreases |
| B3 | decreases |
| B4 | decreases, 61.6 vs 63.8 |
| B5 | decreases, 61.1 vs 63.8 |
| B6 | decreases, 55.1 vs 63.8 |
| B7 | decreases |

Substrate: O=[N+]([O-])c1ccc(O[C@@H]2OC[C@@H](O)[C@H](O)[C@H]2O)cc1
Experiment: purified protein
Assay type: biochemical, Aspergillus nidulans
Conditions: 0.05 M ammonium acetate pH 5.0, 60 °C, 1–20 mM substrate
Remark: another data set of the same source

| Molecule | Km [µM] | Vmax [µmol/min/mg] | kcat [s⁻¹] | kcat/Km [M⁻¹ s⁻¹] |
| --- | --- | --- | --- | --- |
| B9 | 2060 ± 130 | 9.55 | 13.1 | 6340 |

Source: publication PMC6854716, “Redesigning N-glycosylation sites in a GH3 β-xylosidase improves the enzymatic efficiency” (Biotechnology for Biofuels, 2019)
